# Measurements reported in article PMC13276377, “Structural Mechanism of Receptor-Triggered MyD88 Oligomeric Assembly in Innate Immune Signaling” (Nature Communications, 2026).
# B1: TIR domain of MyD88 (TIR_(MyD88); residues 153–296) (domain or fragment, human, UniProt Q99836-1 153-296, looked up)
# chain: PLGHMPERFDAFICYCPSDIQFVQEMIRQLEQTNYRLKLCVSDRDVLPGTCVWSIASELIEKRCRRMVVVVSDDYLQSKECDFQTKFALSLSPGAHQKRLIPIKYKAMKKEFPSILRFITVCDYTNPCTKSWFWTRLAKALSLP
# notes: human MyD88, TIR domain, amino acids 153–296; Self-assembles into antiparallel double-stranded filaments, double-layered rings and cylindrical fibers; also called WT TIR_(MyD88); Toll/interleukin-1 receptor domain of MyD88
# Molecular target: the molecule itself
# Experiment: high-speed AFM; 10–200 μM TIR_(MyD88) adsorbed on mica for 10 min; 20 mM HEPES pH 7.0, 50 mM NaCl, 10 mM DTT; room temperature
protein,measurement,value
B1,stoichiometry N,58
